In US20180030144A1 (INNATE PHARMA, published 2018):

T1: human CD73 expressed at the cell surface (human, UniProt P21589 27-549)
T1 sequence: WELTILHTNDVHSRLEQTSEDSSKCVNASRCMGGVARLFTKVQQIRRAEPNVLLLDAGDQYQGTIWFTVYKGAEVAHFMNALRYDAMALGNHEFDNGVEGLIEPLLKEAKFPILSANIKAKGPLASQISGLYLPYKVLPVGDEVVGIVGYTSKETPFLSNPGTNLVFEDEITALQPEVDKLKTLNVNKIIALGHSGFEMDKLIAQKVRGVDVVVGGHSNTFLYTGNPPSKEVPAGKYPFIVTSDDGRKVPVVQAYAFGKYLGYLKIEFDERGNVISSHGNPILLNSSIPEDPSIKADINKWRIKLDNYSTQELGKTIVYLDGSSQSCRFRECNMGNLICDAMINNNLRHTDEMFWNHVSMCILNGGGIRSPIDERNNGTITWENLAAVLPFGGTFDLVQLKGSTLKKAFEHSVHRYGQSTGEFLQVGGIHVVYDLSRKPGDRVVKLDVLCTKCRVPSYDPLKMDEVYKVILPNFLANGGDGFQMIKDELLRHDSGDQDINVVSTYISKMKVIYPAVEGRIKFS

T2: mouse CD73 expressed on a recombinant host cell line (mouse, UniProt Q61503 29-551)
T2 construct: whole, on cells; also called moCD73
T2 sequence (looked up): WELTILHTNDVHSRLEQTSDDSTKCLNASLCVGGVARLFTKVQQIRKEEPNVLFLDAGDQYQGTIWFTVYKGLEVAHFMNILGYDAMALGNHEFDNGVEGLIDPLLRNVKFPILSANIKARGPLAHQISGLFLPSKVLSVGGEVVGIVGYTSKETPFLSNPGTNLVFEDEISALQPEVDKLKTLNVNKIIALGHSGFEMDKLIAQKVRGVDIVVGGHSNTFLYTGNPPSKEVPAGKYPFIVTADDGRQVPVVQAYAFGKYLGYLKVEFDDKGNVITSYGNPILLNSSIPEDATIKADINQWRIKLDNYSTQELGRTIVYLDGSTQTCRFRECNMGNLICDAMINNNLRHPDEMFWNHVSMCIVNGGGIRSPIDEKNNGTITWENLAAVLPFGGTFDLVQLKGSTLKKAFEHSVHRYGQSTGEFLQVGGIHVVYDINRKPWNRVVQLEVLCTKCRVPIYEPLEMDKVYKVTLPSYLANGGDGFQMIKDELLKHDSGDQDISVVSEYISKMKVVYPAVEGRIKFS

T3: recombinant human CD73-His extracellular domain protein (soluble dimer) (human, UniProt P21589 27-547)
T3 construct: Purified as a dimer; also called huCD73; soluble recombinant human CD73
T3 sequence: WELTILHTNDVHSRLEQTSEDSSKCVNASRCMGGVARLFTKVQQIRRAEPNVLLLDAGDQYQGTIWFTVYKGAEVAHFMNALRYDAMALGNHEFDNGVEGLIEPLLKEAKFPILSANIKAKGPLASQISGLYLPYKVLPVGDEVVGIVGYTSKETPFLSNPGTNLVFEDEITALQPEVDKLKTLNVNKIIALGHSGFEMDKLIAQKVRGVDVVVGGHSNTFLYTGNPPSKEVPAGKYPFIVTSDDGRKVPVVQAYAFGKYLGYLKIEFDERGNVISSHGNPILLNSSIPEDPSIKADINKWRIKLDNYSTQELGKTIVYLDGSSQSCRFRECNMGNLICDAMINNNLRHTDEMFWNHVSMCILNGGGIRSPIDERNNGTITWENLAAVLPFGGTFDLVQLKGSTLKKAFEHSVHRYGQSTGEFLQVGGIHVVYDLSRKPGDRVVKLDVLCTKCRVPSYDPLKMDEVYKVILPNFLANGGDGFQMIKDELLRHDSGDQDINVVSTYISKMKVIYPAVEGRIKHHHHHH

T4: human CD73 mutant 3 (human, UniProt P21589 27-549)
T4 construct: Transfected in HEK293T cells
T4 chain: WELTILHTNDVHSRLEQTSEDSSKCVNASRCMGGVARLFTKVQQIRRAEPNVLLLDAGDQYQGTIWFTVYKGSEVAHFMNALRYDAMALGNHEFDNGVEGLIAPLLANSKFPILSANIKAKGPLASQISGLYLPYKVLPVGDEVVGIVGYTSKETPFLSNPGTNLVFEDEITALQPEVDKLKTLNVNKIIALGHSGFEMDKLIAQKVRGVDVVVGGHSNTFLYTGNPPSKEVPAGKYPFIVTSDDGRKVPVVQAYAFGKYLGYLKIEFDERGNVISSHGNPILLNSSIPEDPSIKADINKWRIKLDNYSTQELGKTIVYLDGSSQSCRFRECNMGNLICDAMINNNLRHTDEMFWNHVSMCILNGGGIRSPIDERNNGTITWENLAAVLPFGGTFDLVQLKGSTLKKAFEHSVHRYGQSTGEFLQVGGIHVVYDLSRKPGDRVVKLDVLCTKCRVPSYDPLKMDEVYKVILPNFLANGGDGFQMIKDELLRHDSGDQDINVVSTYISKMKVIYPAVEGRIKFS


Key:
[1] = molecular target: T1, human CD73 expressed at the cell surface; experiment: cell-based or functional assay
[2] = molecular target: T2, mouse CD73 expressed on a recombinant …; experiment: flow cytometry titration on a mouse-CD73-expressing recombinant host cell line, median of fluorescence
[3] = molecular target: T1, human CD73 expressed at the cell surface; experiment: flow cytometry titration on MDA-MB-231 cells (endogenous CD73), median of fluorescence
Experimental: (§1) MDA-MB-231 cells are available from ATCC (reference HTB-26). 10⁵ cells resuspended in PBS/0.2% BSA/0.02% NaN3 (named “staining buffer”) are distributed into round bottom 96W-microplates. Dose-range of anti-CD73 antibodies was added to the plates and cells are incubated for 45 min at 4° C. Cells were washed three times in staining buffer by spinning plates at 400 g for 3 min at 4° C. PE-coupled goat anti-mouse or goat anti-human IgG Fc fragment secondary antibodies (Beckman Coulter) diluted in staining buffer were added to the cells and plates are incubated for 30 additional minutes at 4° C. Cells were washed three times as described above and analyzed on an Accury C6 flow cytometer equipped with an HTFC plate reader.
Median of fluorescence vs. antibodies concentration was plotted on graphs and EC50 is calculated using Graph Pad Prism program.

[4] = molecular target: T5, cynomolgus CD73 expressed on a recombinant host cell line (cynomolgus); experiment: flow cytometry titration on a cynomolgus-CD73-expressing recombinant host cell line, median of fluorescence
T5 construct: whole, on cells; also called cynoCD73

[5] = molecular target: T1, human CD73 expressed at the cell surface; experiment: flow cytometry on MDA-MB-231 cells pre-incubated with 200 µM APCP
Experimental: as §1
(§2) Cells were pre-incubated at 37° C. for 30 minutes in the presence or not of 200 μM adenosine 5′-(α,β-methylene)diphosphate (APCP), followed by addition of antibodies. APCP is an analog of ADP and binds irreversibly to the active site of CD73. When bound by APCP, CD73 changes conformation from an “open” conformation to a “closed” conformation. mAbs 11E1, 8C7, 3C12 and 6E1 bound MDA-MB-231 cells with good affinity both in the presence and absence of APCP. In the presence of APCP, the EC50 was similar to that observed in the absence of APCP. The plateau for maximal binding of 11E1, 8C7, 3C12 and 6E1 was higher in the absence of APCP than in the presence of APCP, while the inverse was true for AD2.

[6] = molecular target: T1, human CD73 expressed at the cell surface; experiment: cell-based or functional assay; remark: listed apart in the source
[7] = molecular target: T1, human CD73 expressed at the cell surface; experiment: flow cytometry on MDA-MB-231 cells, medium (no APCP)
Experimental: as §1, §2

[8] = molecular target: T3, recombinant human CD73-His …; experiment: ELISA, plate-coated recombinant human CD73
Experimental: 5 μg/ml of recombinant human CD73 protein (IPH, isoform E6) was coated on MaxiSorp ELISA plates (Nunc) in PBS, overnight at 4° C. Plates were washed 5 times in washing buffer (PBS, 0.05% Tween20) and unspecific sites were saturated by adding 200 μl/w TBS starting block buffer (Thermo Ficher). Dose-range of anti-CD73 antibodies were incubated for 2 h at 37° C. Plates were washed 5 times in washing buffer and HRP-coupled goat anti-human or goat anti-mouse IgG Fc fragment secondary antibody (Bethyl, 1/50000) was added for 1 hr at RT to detect bound anti-CD73 antibodies. […] The enzymatic reaction was stopped by adding HCl 1M and O.D. was measured at 450 nm. Optical density vs. anti-CD73 Ab concentration was plotted on graphs and EC50 is calculated using GraphPad Prism software.

[9] = molecular target: T1, human CD73 expressed at the cell surface; experiment: cell-based or functional assay; remark: listed apart in the source
[10] = molecular target: T3, recombinant human CD73-His …; experiment: cell-based or functional assay
[11] = molecular target: T1, human CD73 expressed at the cell surface; experiment: flow cytometry titration on a human-CD73-expressing recombinant host cell line, median of fluorescence
[12] = molecular target: T1, human CD73 expressed at the cell surface; experiment: flow cytometry titration on HEK293T cells transfected with wild type human CD73, MFI PE
[13] = molecular target: T4, human CD73 mutant 3; experiment: flow cytometry titration on HEK293T cells transfected with human CD73 mutant 3, MFI PE

Binder | EC50 for neutralization of 5'-ectonucleotidase activity, mean over MDA-MB-231, H292 and A375 cells [1] | EC70 for neutralization of 5'-ectonucleotidase activity, mean over MDA-MB-231, H292 and A375 cells [1] | EC100 for neutralization of 5'-ectonucleotidase activity, mean over MDA-MB-231, H292 and A375 cells [1] | binding result [2] | EC50 (read off the curve) [3] | EC50 (read off the curve) [4] | EC50 [5] | EC50 for neutralization of the enzymatic activity of cellular CD73 (MDA-MB-231 cells, free phosphate from AMP) [6] | EC50 [7] | EC50 [8] | decrease of the enzymatic activity of cellular CD73 (MDA-MB-231 cells) [9] | EC50 for CD73 blockade (enzymatic activity of soluble recombinant human CD73-his) [10] | EC50 (read off the curve) [11] | EC50 (read off the curve) [12] | EC50 (read off the curve) [13]
antibody 8C7 (antibody, human IgG1, V domains shown, Produced as chimeric human IgG1 with heavy chain N297Q (Kabat EU numbering); RTVAAP)) VH: EVQLQQSGPELVKPGASVKVSCKASGYAFASYNMNWVKQSHGKSLDWIGYIDPYNGGSSYNLTFKGKATLTVDKSSTTAYMHLNSLTSEDSAVYYCARGYGNYKAWFAYWGQGTLVTVSA VL: SIVMTPTPKFLLVSAGDRVTITCKASQSVSNDVAWYQQKPGQSPKLLIYYASTRYTGVPDRFTGSGYGTDFTFTISTVQAEDLAVYFCQQDYSSLTFGAGTKLELKR | 0.21 mg/L | 0.46 mg/L | 0.72 µg/mL | no binding (tested: about 30 µg/ml) | ~0.1 mg/L | ~0.4 mg/L | 0.143 mg/L | 0.319 mg/L | 0.0903 mg/L | 0.009 mg/L | > 75% | 1.29 mg/L | ~0.1 mg/L | – | –
antibody AD2 (Biolegend, product ref. 344004) (antibody, V domains shown) VH: EVQLQQSGAELVKPGASVKLSCTASGFNIKDTYIHWVKQRPEQGLEWIGRIDPATGNTEYDPKFQGKATITADTSSNTAYLHLSSLTSEDTAVYYCARGYYGSSYPPWFAYWGQGTLVTVS VL: DIVMTQSHKFMSTSVGDRVSITCKASQDVGSAVAWYQQKPGQSPKLLIYWASTRHTGVPDRFTGSGSGTDFTLTISNVQSEDLADYFCQQYSSYPLTFGAGTKLELK | – | – | – | – | – | – | 0.0959 mg/L | – | 0.0629 mg/L | – | – | – | – | ~0.2 mg/L | ~0.1 mg/L
